From US6713606

Target: T1, purified human Lysn-Plasminogen, P00747
T1 chain: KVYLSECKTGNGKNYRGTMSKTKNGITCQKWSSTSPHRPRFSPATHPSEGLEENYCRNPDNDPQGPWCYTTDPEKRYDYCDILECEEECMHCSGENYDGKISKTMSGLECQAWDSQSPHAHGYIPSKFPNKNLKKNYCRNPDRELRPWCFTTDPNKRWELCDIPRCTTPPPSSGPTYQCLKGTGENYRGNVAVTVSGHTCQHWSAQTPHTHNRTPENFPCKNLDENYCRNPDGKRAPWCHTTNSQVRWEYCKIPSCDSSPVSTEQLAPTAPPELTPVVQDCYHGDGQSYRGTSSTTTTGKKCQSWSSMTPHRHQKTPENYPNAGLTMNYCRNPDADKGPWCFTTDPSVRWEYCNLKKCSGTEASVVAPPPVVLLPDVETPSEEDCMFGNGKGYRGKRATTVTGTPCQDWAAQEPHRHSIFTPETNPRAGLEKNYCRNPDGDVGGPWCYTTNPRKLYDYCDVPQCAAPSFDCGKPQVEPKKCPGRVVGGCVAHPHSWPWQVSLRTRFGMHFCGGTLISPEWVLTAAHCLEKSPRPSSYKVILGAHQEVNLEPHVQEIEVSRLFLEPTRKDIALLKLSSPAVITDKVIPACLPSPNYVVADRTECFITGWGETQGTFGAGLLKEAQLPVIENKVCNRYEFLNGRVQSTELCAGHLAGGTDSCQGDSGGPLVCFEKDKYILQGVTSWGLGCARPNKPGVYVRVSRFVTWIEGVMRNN

B1: thiolated streptokinase (protein)
chain: IAGPEWLLDRPSVNNSQLVVSVAGTVEGTNQDISLKFFEIDLTSRPAHGGKTEQGLSPKSKPFATDSGAMSHKLEKADLLKAIQEQLIANVHSNDDYFEVIDFASDATITDRNGKVYFADKDGSVTLPTQPVQEFLLSGHVRVRPYKEKPIQNQAKSVDVEYTVQFTPLNPDDDFRPGLKDTKLLKTLAIGDTITSQELLAQAQSILNKNHPGYTIYERDSSIVTHDNDIFRTILPMDQEFTYRVKNREQAYRINKKSGLNEEINNTDLISEKYYVLKKGEKPYDPFDRSHLKLFTIKYVDVDTNELLKSEQLLTASERNLDFRDLYDPRDKAKLLYNNLDAFGIMDYTLTGKVEDNHDDTNRIITVYMGKRPEGENASYHLAYDKDRYTEEEREVYSYLRYTGTPIPDNPNDK
plasmin generation in the plasminogen activation assay (S-2251 substrate units): thiolated SK (1 nM), generated plasmin at a nearly linear of 4225 SU/ml
